Test results as given in patent EP4624493A1 (Jiangsu Hengrui Pharmaceuticals Co., Ltd., dated 2025).

Molecular target: T1, human HGFR protein extracellular domain with the His tag (human, UniProt P08581 25-932)
T1 construct: also called HGFR-His
Assay: SPR Biacore T200, comparison of KD values

T1 sequence (P08581 other isoform, or with tags, fused parts or gaps): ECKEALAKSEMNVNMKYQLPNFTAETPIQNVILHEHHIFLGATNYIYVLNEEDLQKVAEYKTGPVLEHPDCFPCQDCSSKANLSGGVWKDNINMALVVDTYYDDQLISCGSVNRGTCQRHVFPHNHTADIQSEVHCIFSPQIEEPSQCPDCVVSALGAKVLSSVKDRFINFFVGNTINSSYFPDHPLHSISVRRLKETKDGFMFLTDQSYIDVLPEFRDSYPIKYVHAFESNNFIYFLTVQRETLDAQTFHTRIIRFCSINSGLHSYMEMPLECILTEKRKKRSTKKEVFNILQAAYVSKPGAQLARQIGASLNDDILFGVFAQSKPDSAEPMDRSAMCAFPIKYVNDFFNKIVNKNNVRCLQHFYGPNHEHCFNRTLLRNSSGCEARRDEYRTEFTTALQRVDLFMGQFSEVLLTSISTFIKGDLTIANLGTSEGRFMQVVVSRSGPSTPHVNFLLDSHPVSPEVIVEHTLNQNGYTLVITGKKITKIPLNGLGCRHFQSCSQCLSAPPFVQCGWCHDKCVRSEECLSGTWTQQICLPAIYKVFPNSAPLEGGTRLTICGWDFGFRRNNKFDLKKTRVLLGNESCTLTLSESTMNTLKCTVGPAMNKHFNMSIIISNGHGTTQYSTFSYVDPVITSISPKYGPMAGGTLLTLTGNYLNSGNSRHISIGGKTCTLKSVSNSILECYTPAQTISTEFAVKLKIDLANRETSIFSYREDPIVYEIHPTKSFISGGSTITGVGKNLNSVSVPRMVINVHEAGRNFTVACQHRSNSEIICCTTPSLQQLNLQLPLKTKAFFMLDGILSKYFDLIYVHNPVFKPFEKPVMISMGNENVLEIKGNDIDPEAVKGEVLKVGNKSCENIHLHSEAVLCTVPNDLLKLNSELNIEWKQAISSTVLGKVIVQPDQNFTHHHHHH

B1: Ab10.1, mutant antibody of Ab10 (anti-HGFR) (antibody, V domains shown)
VH: QVQLVESGGGVVQPGRSLRLSCAASGFSLSDYGVHWVRQAPGKGLEWLAVIWSGGSTNYADAFVSRLTISKDNSKNTVYLQMNSLRAEDTAVYYCARNHDNPYIYAMDYWGQGTTVTVSS
VL: DIVLTQSPDSLAVSLGERATINCRADKSVSTSTYNYLHWYQQKPGQPPKLLIYRGSFLATGVPDRFSGSGSGTDFTLTISSLQAEDVAVYYCQHSRDLPPTFGQGTKLEIK
- fold affinity against the parent antibody Ab10: ≥ 4 fold
